Legend:
Assay in all cases: cell-based or functional assay
[1] = target: HIV-1 Env of isolate MGRM-C-028 (subtype C), on pseudovirus (HIV-1)
[2] = target: HIV-1 Env of isolate 92RW008 (subtype A) (HIV-1)
[3] = target: HIV-1 Env of pseudovirus isolate 92BR020 (clade B) (HIV-1)
[4] = target: HIV-1 Env of isolate 98CN006 (HIV-1)
[5] = target: HIV-1 Env of pseudovirus isolate 93TH305 (clade B) (HIV-1)
[6] = target: HIV-1 Env of pseudovirus isolate MGRM-Chronic-B-008 (clade B) (HIV-1)
[7] = target: HIV-1 Env of pseudovirus isolate CAAN.A2 (clade B) (HIV-1)
[8] = target: HIV-1 Env of isolate MGRM-G-006 (subtype G) (HIV-1)
[9] = target: HIV-1 Env of isolate MGRM-G-024 (subtype G) (HIV-1)
[10] = target: HIV-1 Env of isolate MGRM-D-001 (HIV-1)
[11] = target: HIV-1 Env of isolate 92UG005 (HIV-1)
[12] = target: HIV-1 Env of isolate 92TH021 (pseudovirus) (HIV-1)
[13] = target: HIV-1 Env of isolate MGRM-D-008 (pseudovirus) (HIV-1)
[14] = target: HIV-1 Env of pseudovirus isolate MGRM-C-012 (clade C) (HIV-1)
[15] = target: HIV-1 Env of isolate MGRM-C-004 (HIV-1)
[16] = target: HIV-1 Env of isolate MGRM-F1-010 (HIV-1)
[17] = target: HIV-1 Env of pseudovirus isolate MGRM-C-006 (clade C) (HIV-1)
[18] = target: HIV-1 Env of pseudovirus isolate MGRM-C-027 (clade C) (HIV-1)
[19] = target: HIV-1 Env of pseudovirus isolate MGRM-C-026 (clade C) (HIV-1)
[20] = target: HIV-1 Env of isolate MGRM-F1-022 (HIV-1)
[21] = target: HIV-1 Env of isolate MGRM-AG-002 (subtype AG) (HIV-1)
[22] = target: HIV-1 Env of pseudovirus isolate MGRM-C-028 (clade C) (HIV-1)
[23] = target: HIV-1 Env of isolate MGRM-D-026 (HIV-1)
[24] = target: HIV-1 Env of isolate THR0.18 (Acute), clade B (HIV-1)
[25] = target: HIV-1 Env of pseudovirus MGRM-F1-006 (clade F) (HIV-1)
[26] = target: HIV-1 Env of isolate MGRM-AG-013 (pseudovirus) (HIV-1)
[27] = target: HIV-1 MGRM-AG-013 Env (pseudovirus) (HIV-1)
[28] = target: HIV-1 MGRM-G-009 Env (pseudovirus) (HIV-1)
[29] = target: HIV-1 envelope glycoprotein (Env) of isolate MGRM-C-019 (HIV-1)
[30] = target: HIV-1 Env of isolate MGRM-A-009 (clade A pseudovirus) (HIV-1)
[31] = target: HIV-1 Env of isolate MGRM-A-003 (clade A pseudovirus) (HIV-1)
[32] = target: HIV-1 envelope glycoprotein (Env) of isolate APV_13, on pseudovirus (HIV-1)
[33] = target: HIV-1 envelope glycoprotein (Env) of isolate 92WR020, subtype A (HIV-1)
[34] = target: HIV-1 envelope glycoprotein (Env) of isolate 92TH021, subtype AE (HIV-1)
[35] = target: HIV-1 envelope glycoprotein (Env) of isolate MGRM-AE-001, subtype AE (HIV-1)
[36] = target: HIV-1 envelope glycoprotein (Env) of isolate 93IN905, on pseudovirus (HIV-1)
[37] = target: HIV-1 envelope glycoprotein (Env) of isolate THRO.18, on pseudovirus (HIV-1)

Sequence of 4995_E20 (PGT-142) (antibody) (VH): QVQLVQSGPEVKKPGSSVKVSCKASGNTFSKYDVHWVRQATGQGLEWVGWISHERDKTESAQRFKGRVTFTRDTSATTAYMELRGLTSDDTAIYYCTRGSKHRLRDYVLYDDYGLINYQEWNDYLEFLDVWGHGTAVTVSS
Sequence of 4995_E20 (PGT-142) (antibody) (VL): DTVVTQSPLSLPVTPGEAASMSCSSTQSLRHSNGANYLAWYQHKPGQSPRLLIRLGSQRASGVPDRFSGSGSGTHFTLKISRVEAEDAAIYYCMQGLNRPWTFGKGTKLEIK
Sequence of 4980_N08 (PGT-143) (antibody) (VH): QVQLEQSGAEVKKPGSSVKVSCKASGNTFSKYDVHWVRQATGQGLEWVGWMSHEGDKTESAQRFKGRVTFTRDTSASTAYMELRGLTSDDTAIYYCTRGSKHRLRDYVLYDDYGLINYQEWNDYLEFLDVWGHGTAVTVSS
Sequence of 4980_N08 (PGT-143) (antibody) (VL): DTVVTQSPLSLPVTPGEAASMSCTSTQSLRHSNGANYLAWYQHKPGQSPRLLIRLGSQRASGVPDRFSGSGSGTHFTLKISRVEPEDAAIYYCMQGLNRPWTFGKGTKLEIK

4995_E20 (PGT-142) (antibody) gave an IC50, single-round pseudovirus neutralization [1] of 2.12 µg/mL, an IC50, pseudovirus neutralization [2] of 0.447 µg/mL and an IC50, pseudovirus neutralization [3] of 15.1 µg/mL. For the same substance, the IC50 (µg/mL), pseudovirus neutralization [4] was > 50 µg/mL, the IC50, pseudovirus neutralization [5] was 5.86 µg/mL and the IC50, pseudovirus neutralization [6] was > 50 µg/mL. The IC50, pseudovirus neutralization [7] was > 50 µg/mL, the IC50 (µg/mL), pseudovirus neutralization [8] was 0.019 µg/mL and the IC50 (µg/mL), pseudovirus neutralization [9] was 0.054 µg/mL. For the same substance, the IC50 (µg/mL), pseudovirus neutralization [10] was > 50 µg/mL, the IC50 (µg/mL), pseudovirus neutralization [11] was > 50 µg/mL and the IC50 (µg/mL), single-round pseudovirus neutralization [12] was 0.002 µg/mL.

For 5114_A19 (PGT-128) (antibody), the IC50 (µg/mL), pseudovirus neutralization [13] was 0.033 µg/mL, the IC50, pseudovirus neutralization [14] was 0.058 µg/mL and the IC50 (µg/mL), pseudovirus neutralization [15] was 0.025 µg/mL. It also gave an IC50 (µg/mL), pseudovirus neutralization [16] of 16.7 µg/mL, an IC50, pseudovirus neutralization [17] of 0.014 µg/mL and an IC50, pseudovirus neutralization [18] of 0.081 µg/mL. For the same substance, the IC50, pseudovirus neutralization [19] was 0.007 µg/mL, the IC50 (µg/mL), pseudovirus neutralization [20] was 4.54 µg/mL and the IC50, pseudovirus neutralization [21] was 4.99 µg/mL. For the same substance, the IC50, pseudovirus neutralization [22] was 14.4 µg/mL and the IC50 (µg/mL), pseudovirus neutralization [23] was > 50 µg/mL.

With 4980_N08 (PGT-143) (antibody) the IC50, single-round pseudovirus neutralization [1] was 12.4 µg/mL, the IC50, pseudovirus neutralization [2] was 0.385 µg/mL and the IC50, pseudovirus neutralization [3] was 25.9 µg/mL. For the same substance, the IC50 (µg/mL), pseudovirus neutralization [4] was > 50 µg/mL, the IC50, pseudovirus neutralization [5] was 17.3 µg/mL and the IC50, pseudovirus neutralization [6] was > 50 µg/mL. For the same substance, the IC50, pseudovirus neutralization [7] was > 50 µg/mL, the IC50 (µg/mL), pseudovirus neutralization [8] was 0.031 µg/mL and the IC50 (µg/mL), pseudovirus neutralization [9] was 0.048 µg/mL. The IC50 (µg/mL), pseudovirus neutralization [10] was > 50 µg/mL, the IC50 (µg/mL), pseudovirus neutralization [11] was > 50 µg/mL and the IC50 (µg/mL), single-round pseudovirus neutralization [12] was 0.003 µg/mL.

1496_C09 (PG9) (TCN-109) (antibody) showed an IC50 (µg/ml), pseudovirus neutralization [24] of 12.4 µg/mL, an IC50 [25] of 1.45 µg/mL and an IC50 (µg/mL), pseudovirus neutralization [26] of 0.259 µg/mL. For the same substance, the IC50 (µg/ml), pseudovirus neutralization [27] was 0.23 µg/mL, the IC50 (µg/ml), pseudovirus neutralization [28] was 4.9 µg/mL and the IC50 (µg/mL), pseudovirus neutralization [8] was 1.98 µg/mL. The IC50 (µg/mL), pseudovirus neutralization [9] was 0.163 µg/mL, the IC50 (µg/ml), pseudovirus neutralization [29] was 0.01 µg/mL and the IC50 (µg/ml), pseudovirus neutralization [30] was 0.03 µg/mL. It also gave an IC50 (µg/mL), pseudovirus neutralization [12] of 0.059 µg/mL and an IC50 (µg/ml), pseudovirus neutralization [31] of 0.65 µg/mL.

PGV04 (antibody) gave an IC50 (µg/mL), pseudovirus neutralization [26] of 0.03 µg/mL, an IC50 (µg/mL), pseudovirus neutralization [8] of 0.083 µg/mL and an IC50 (µg/mL), pseudovirus neutralization [9] of 0.033 µg/mL. It also gave an IC50 (µg/mL), pseudovirus neutralization [20] of 0.072 µg/mL and an IC50 (µg/mL), pseudovirus neutralization [12] of 1.29 µg/mL.

In the case of 5136_H01 (PGT-131) (antibody), the IC50 (µg/mL), pseudovirus neutralization [13] is reported as > 50 µg/mL, the IC50, pseudovirus neutralization [14] is reported as > 50 µg/mL and the IC50 (µg/mL), pseudovirus neutralization [15] is reported as 3.71 µg/mL. For the same substance, the IC50 (µg/mL), pseudovirus neutralization [16] was > 50 µg/mL, the IC50, pseudovirus neutralization [17] was 0.611 µg/mL and the IC50, pseudovirus neutralization [18] was 0.065 µg/mL. The IC50, pseudovirus neutralization [19] was 1.67 µg/mL, the IC50 (µg/mL), pseudovirus neutralization [20] was > 50 µg/mL and the IC50, pseudovirus neutralization [21] was > 50 µg/mL. For the same substance, the IC50, pseudovirus neutralization [22] was > 50 µg/mL and the IC50 (µg/mL), pseudovirus neutralization [23] was > 50 µg/mL.

With 5145_B14 (PGT-127) (antibody) the IC50 (µg/mL), pseudovirus neutralization [26] was 0.018 µg/mL, the IC50, pseudovirus neutralization [32] was 0.026 µg/mL and the IC50, pseudovirus neutralization [33] was 0.01 µg/mL. The IC50, pseudovirus neutralization [34] was > 50 µg/mL, the IC50, pseudovirus neutralization [35] was > 50 µg/mL and the IC50, pseudovirus neutralization [36] was 0.024 µg/mL. For the same substance, the IC50, pseudovirus neutralization [37] was > 50 µg/mL.

With 4838_L06 (PGT-121) (antibody) the IC50, pseudovirus neutralization [32] was 0.251 µg/mL, the IC50, pseudovirus neutralization [33] was 0.004 µg/mL and the IC50, pseudovirus neutralization [34] was > 50 µg/mL. The IC50, pseudovirus neutralization [35] was > 50 µg/mL, the IC50, pseudovirus neutralization [36] was 0.005 µg/mL and the IC50, pseudovirus neutralization [37] was > 50 µg/mL.

4858_P08 (PGT-123) (antibody) was tested, and the IC50 (µg/mL), pseudovirus neutralization [26] was 3.37 µg/mL, the IC50, pseudovirus neutralization [32] was 0.138 µg/mL and the IC50, pseudovirus neutralization [33] was 0.002 µg/mL. The IC50, pseudovirus neutralization [34] was > 50 µg/mL, the IC50, pseudovirus neutralization [35] was > 50 µg/mL and the IC50, pseudovirus neutralization [36] was 0.004 µg/mL. For the same substance, the IC50, pseudovirus neutralization [37] was > 50 µg/mL.

Reference: US20240132578A1
